In paper PMC4320033 (Nature, 2015):

Biological target: N-ethylmaleimide Sensitive Factor (NSF), Chinese hamster, full-length, His-tag cleaved, reassembled hexamer (Chinese hamster, UniProt P18708 1-744)
Assay: cryo-EM structure

Sequence of N-ethylmaleimide Sensitive Factor (NSF), Chinese hamster, full-length, His-tag cleaved, reassembled hexamer (P18708 whole entry): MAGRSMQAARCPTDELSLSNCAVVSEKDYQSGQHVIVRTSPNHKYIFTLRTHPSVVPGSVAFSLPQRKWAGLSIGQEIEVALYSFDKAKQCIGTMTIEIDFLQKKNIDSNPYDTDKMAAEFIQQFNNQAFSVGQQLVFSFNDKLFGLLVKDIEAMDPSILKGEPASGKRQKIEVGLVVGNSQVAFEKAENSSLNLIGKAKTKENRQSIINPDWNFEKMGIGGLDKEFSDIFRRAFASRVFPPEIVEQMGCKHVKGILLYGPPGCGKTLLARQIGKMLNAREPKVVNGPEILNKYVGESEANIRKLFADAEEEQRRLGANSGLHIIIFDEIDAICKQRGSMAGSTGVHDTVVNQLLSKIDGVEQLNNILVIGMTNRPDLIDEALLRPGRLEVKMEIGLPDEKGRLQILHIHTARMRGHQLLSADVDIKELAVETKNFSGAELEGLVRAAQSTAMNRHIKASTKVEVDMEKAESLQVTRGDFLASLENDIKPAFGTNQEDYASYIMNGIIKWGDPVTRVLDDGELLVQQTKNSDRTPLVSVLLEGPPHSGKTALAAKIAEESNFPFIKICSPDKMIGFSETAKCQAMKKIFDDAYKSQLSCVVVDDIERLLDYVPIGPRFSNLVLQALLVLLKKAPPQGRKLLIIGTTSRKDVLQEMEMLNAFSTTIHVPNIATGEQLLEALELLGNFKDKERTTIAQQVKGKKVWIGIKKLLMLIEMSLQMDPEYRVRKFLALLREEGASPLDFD

B1: αSNAP (Soluble NSF Attachment Protein alpha), rat, wild type (natural protein)
chain: MDTSGKQAEAMALLAEAERKVKNSQSFFSGLFGGSSKIEEACEIYARAANMFKMAKNWSAAGNAFCQAAQLHLQLQSKHDAATCFVDAGNAFKKADPQEAINCLMRAIEIYTDMGRFTIAAKHHISIAEIYETELVDVEKAIAHYEQSADYYKGEESNSSANKCLLKVAGYAAQLEQYQKAIDIYEQVGTSAMDSPLLKYSAKDYFFKAALCHFCIDMLNAKLAVQKYEELFPAFSDSRECKLMKKLLEAHEEQNVDSYTESVKEYDSISRLDQWLTTMLLRIKKTIQGDEEDLR
B1: binds.
